Results published in the RNAGym collection of RNA variant scans (doi:10.1073/pnas.2313332121).
This sample holds only a part of the variants without activity.

B1: TPR 5TU (parent)
chain: GGAUCUUCUCGAUCUAACAAAAAAGACAAAUCUGCCACAAAGCUUGAGAGCAUCUUCGGAUGCAGAGGCGGCAGCCUUCGGUGGCGCGAUAGCGCCAACGUUCUCAACUAUGACACGCAAAACGCGUGCUCCGUUGAAUGGAGUUUAUCAUG

Variants of: B1
Test: polymerase ribozyme fitness, log enrichment relative to wild type (log ratio); higher = more active; in vitro selection for triplet polymerase activity
Summary of the method: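 Each subunit of a heterodimeric triplet polymerase ribozyme was mutagenized into a library by PCR, transcribed, and subjected to one round of in vitro selection, run in triplicate. Libraries were annealed with a biotinylated primer, the partner subunit and triplets, incubated frozen at −7 °C, and extended constructs were gel-excised, captured on streptavidin beads and recovered by RT-PCR. Input and output libraries were sequenced on Illumina, keeping genotypes with ≥10 input reads and ≥1 read per output. Fitness is log base 2 of genotype enrichment divided by wild-type enrichment, from inverse-variance-weighted replicate averages.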

Variant | polymerase ribozyme fitness (log ratio)
GGAUCGUCUCGAUCUAACAAAAAAGACAGAUCUGCCACAAAGCUUGAGAGCAUCUUCGGAUGCAGAGGCGGCAGCCUUCGGUGGCGCGAUAGCGCCAACGUUCUCAACUAUGACACGCAAAACGCGUGCUCCGUUGAAUGGAGUUUAUCAUG [U6G A29G] | -3.97
GGAUCGUCUCGAUCUAACAAAAAAGACAAAUCUGCCACAUAGCUUGAGAGCAUCUUCGGAUGCAGGGGCGGCAGCCUUCGGAGGCGCGAUAGCGCAAACUUUCUCAACUAUGACACGCAAAACGCGUGCUCCGUUGAAUGGAGUUUAUCAUG [U6G A40U A66G U82A C96A G100U] | ≤ -4.2
GGAUCGUCUCGAUCUAACAAAAAAGACAAAUCUGCCACAAAGCUUGAGAGCAUCUUCGGAUGCAGAGGCGGCCGCCUUCGGUGGCGCGAUAGCGCCAAUGUUCUCAACUAUGACACGCAAAACGCGUGCUCCGUUGAAUGGAGUUUAUCAUG [U6G A73C C99U] | ≤ -4.2
GGAUCGUCUCGAUCUAACAAAAAAGACAAAUCUGCCACAAAGCUUGAGAGCAUCUUCGGAUGCAGAGGCGGCAGCCUUCGGUGGCGCGAUAGCGCCAACGUUCUCAACUAUGACACGCAGAACGCGUGCUCCGUUGAAUGGAGUUUAUCAUG [U6G A120G] | -0.399
GGAUCGUCUCGAUCUAACAAAAAAGGCACAUCUGCCACAAAGCUUGUGAGCAUCUUCGGAUGUAGAGGCGGCAGCCUUCGGUGACGCGAUAGCGCCAACGUUCUCAACUAUGACACGCAAAACGCGUGCUCCGUUUAAUGGACUUUAUCAAG [U6G A26G A29C A47U C63U G84A G136U G143C U151A] | ≤ -4.2
GGAUCGUCUCGAUCUAACAAAAAAGACAAAUCUGCCACAAAGCUUGAGCGUAUCUUCGGAUGCAGAGGCGGCAGCCUUCGGUGGCGCAAUAGCGCCAACGUUCUCAUCUAUGACACGCAAAACGCGUGCUCCGUUGAAUGGGGUUUAUCAUG [U6G A49C C51U G88A A107U A142G] | ≤ -4.2
GGAUCGUCUCGAUCUAACAAAAAAGACAAAUCUGCCACAAAGCUUGAGAGCAUCUUCGGAUGCAGAGGCGGCAGCCUUCGGUGGCGCGAUAGCGCCAACGUUCUCAACUAUGACACGCAAACCGCGUGCUCCGUUGAAUGGAGUUUAUCAUG [U6G A122C] | -0.304
GGAUCGUCUCGAUCUAACAAAAUAGACAAAUCUGCCACAAAGCUUGAGAGCAUCUUCGGAUGCAGAGGCGGCGGCAUUCGGUGGCGCGAUAGCGCCAGCGUUCUGAACUAUGCCACGCGAAACGCGUGCUCCGUUGAAUGGAGUUUAUCAUG [U6G A23U A73G C76A A98G C105G A113C A119G] | ≤ -4.2
GGAUCGUCUCGAUCUAACAAAAAAGACUAAUCUGCCACAAAGCUUGAGAGCAUCUUCGGAUGCAGAGGCGGUAGCCUUCGGUGGCGAGAUAGCGCCAACGUUCUCAACUAUGACACGCAAAACGCGUGCUCCGUUGAAUGGAGUUUAUCAUG [U6G A28U C72U C87A] | ≤ -4.2
GGAUCGUCUCGAUCUAACAAAAAAGACAAAUCUGCCACAAUGCUCGAGAGCAUCUUCGGAUGCAGAGGCGGCAGCCUUCGGUGGCGCGAUAGCGCCAACGUUCUCAACUAUGACACGCAAAACGCGUGCUCCGUUGAAUGGAGUUUAUCAUG [U6G A41U U45C] | -2.17
GGAUCGUCUCGAUCUAACAAAAAAGACAAAUCUGCCACCAAGCUUGAGAGCAUCUUCGGAUGCAGAGGCGGCAGCCUUCGGUGGAGCGAUAGCGCCAGCGUUCUCAACUAUGACACGCAAAACGCCUGCUCCGUUGAAUGGAGUUUAUCAUG [U6G A39C C85A A98G G126C] | -3.91
GGAUCGUCUCGAUCUAACAAAAAAGCCAAAUCUGCCACAAAGCUUGAGAGCAUCUUCGGAUGCAGAGGCGGCAGCCUUCGGUGGCGCGAUAGCGCCAACGUUCUCAACUAUGACACGCAAAACGCGUGCUCCGUUAAAUGGUGUUAAUCAUG [U6G A26C G136A A142U U146A] | ≤ -4.2
GGAUCGUCUCGAUCUAACAAAAAAGACAAAUCUGCCCCAAAGCUUGAGAGGAUCUUCGGAUGCAGAGGCGGCACCCUUCGGUGGCGCGAUAGCGCCAUCGUUAUCAACUAUGACACGAAAAACGCGUUCUCCGUCGAAUGGAGUUCAUCAUA [U6G A37C C51G G74C A98U C103A C118A G128U U135C U146C G152A] | ≤ -4.2
GGAUCGUCUCGAUCUAACAAAAAAGACCAAUCUGCCACAAAGCUUGAGAGCAUCUUCGGAUGCAGAGGCGGCAGCGUUCGGUGGCGCGAUAUCGCCAACGUUCUCAACUAUGACACGCAAAACGCGUGCUCCGUUGAAUGGAGUUUAUCAUG [U6G A28C C76G G92U] | ≤ -4.2
GGAUCGUCUCGAUCUAACAAAAAAGACUAAUCUGCCACAAAGCUUGAGAGCAUCUUCGGAUGCAGAGGCGGCAGCCUUCGGUGGCGCGAUAGCGCCAACGUUCUCAACUAUGACACGCAAAACGCGUGCUCCGUUGAAUGGAGUUUAUCAUG [U6G A28U] | -3.76
GGAUCGUCUCGAUCUAACAAAUAAGACAAAUCUGCCACAAAGCUUGAGAGCAUCUUCGGAUGCAGAGGCGGCAGCCUUCGGUGGAGCGAUAGCGCCAACGUUCUCAACUAUGACACGCAAAACGCGUGCUCCGUUGAAUGGAGUUUAUCAUG [U6G A22U C85A] | -0.601
GGAUCGUCUCGAUCUAACAAACAAGACAAAUCUGACACAAAGCUUGAGAGCAUCUUCCGAUGCAGAGGCGGCAUCUUCCGGUGGCGCGAUAGCGCCAACGUUCUCAACUAUGACACGCAAAACGCGUGCUCCUUUGAAUGGAGUUUAUCACG [U6G A22C C35A G58C G74U C76U U78C G133U U151C] | ≤ -4.2
GGAUCGUCUCGAUCUAACAAAAAAGACAAAUCUGCCACAAAGCUUGAGAGCAUCUUCGGCUGCAGAGGCGGCAGCCUUCGGUGGAGCGAUAGCGCUAACGUUCUCAACUAUGACACGCAAAACUCGUGCUCCGUUGAAUGGAGUUUAUCAUG [U6G A60C C85A C96U G124U] | -4.11
GGAUCGUCUCGAUCUAACAUAAAAGACAAAUCUGCCACAAAGCUUGAGAGCAUCUUCGGAUGCAGAGGCGGCUGCCUUCGGUGGCGCGAUAGCGCCAACGUUCUCAACUAUGACACGCAAAACGCGUGCUCCGCUGAAUGGAGUGUAUCAUG [U6G A20U A73U U134C U145G] | -3.22
